Target: T1, HLA-A*24:02-restricted peptides (Homo sapiens, UniProt P04439, D101N/D140Y/D185E/E176V/E190D/F33S/G103R/G107R/I119L/I121M/I306V/K335N/L105A/L180Q/L300P/N151K/N90K/Q86E/Q94H/R106L/R138H/R89G/T104I/T345S/V100E/W191G/Y123F)
T1 construct: T2 cells transduced with the full-length HLA-A*24:02 genes tagged with ΔNGFR; Furin-SGSG-F2A-linked truncated NGFR (ΔNGFR) co-expression marker (C); expressed in transfected cells; host or cells: T2 cells, retrovirally transduced (pMX)
Assay: Peptide-HLA binding assay (biotinylated peptide, SA-PE, flow cytometry)
Type: cell-based
Settings: irrelevant control peptides
Method: T2-A24 (Wild-type) cells, or T2-A24 cells with a single amino acid substitution at position 81, 82, or 83 were pulsed with 50 μg/ml of biotinylated peptide overnight at 37° C. After intensive washing, the cells were stained by PE-conjugated streptavidin (SA-PE), washed and fluorescence intensity was measured by flow cytometry analysis.

- peptide presentation by T2 cells towards non-HLA-A*24:02 restricted peptides: no increase
Substance: HLA-A*24:02 (A81L): HLA-A*24:02 with an Ala to Leu substitution at position 81 (A81L), corresponding to SEQ ID NO: 1

Reference: patent US20250367292A1, “HLA SUPERAGONISTS AND USES THEREOF” (UNIVERSITY HEALTH NETWORK, priority 2021, published 2025)
